The text below walks through data of patent US20240116985A1 (published 2024).

Assay [1] deals with T1, full-length beta-Catenin (Uniprot ID P35222) (Homo sapiens (Human), UniProt P35222 2-781).
T1 construct: also called B-Catenin; bCat
T1 sequence: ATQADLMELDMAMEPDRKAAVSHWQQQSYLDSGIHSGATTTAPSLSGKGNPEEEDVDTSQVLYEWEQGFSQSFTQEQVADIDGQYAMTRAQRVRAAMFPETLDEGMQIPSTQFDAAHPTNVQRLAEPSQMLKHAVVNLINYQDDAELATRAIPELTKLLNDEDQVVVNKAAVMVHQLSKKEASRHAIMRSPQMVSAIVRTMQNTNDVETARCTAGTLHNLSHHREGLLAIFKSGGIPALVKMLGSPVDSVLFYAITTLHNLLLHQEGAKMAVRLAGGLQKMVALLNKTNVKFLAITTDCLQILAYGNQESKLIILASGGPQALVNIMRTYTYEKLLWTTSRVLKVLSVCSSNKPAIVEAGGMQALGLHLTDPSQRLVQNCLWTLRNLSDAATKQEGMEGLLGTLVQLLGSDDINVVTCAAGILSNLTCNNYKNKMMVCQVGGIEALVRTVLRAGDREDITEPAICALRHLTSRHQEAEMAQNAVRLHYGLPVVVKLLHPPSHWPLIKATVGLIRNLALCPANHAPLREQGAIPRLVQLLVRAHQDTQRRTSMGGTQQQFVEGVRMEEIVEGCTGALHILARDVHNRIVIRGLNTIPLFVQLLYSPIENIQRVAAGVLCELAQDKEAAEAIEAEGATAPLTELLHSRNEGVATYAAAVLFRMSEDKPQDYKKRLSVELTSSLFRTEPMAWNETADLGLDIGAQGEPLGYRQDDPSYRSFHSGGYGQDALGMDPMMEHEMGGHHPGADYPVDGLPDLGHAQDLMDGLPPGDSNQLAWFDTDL
Description: Alphascreen competition; biotin-TCF4(10-53) probe with full-length beta-catenin. How it is done:
(§1) Equal volume of the titrated peptide was added to the plate and incubated for 15 minutes at 20° C. Then 4 uL of donor and 4 uL acceptor beads at 10 ug/mL were added to the plate, for a 16 uL reaction pool and protected from light for 60 minutes at 20° C. prior to read. Reads were performed on a CLARIOstar plate reader (BMG Labtech) in duplicate, and data were fitted to a 1:1 binding model with hill slope using an in-house script. All provided concentrations are final concentrations.
In general terms: Bead proximity is the source of the signal in Alpha formats.

The target of assay [2] is T2, full-length beta-Catenin (Uniprot ID P35222) (Homo sapiens (Human), UniProt P35222 2-781).
T2 construct: Used full-length in both the FP and the AlphaScreen assay; also called B-Catenin; bCat
T2 sequence: T1 sequence
The experiment in a line: AlphaScreen competition; full-length beta-catenin, biotin-TCF4(10-53) probe. How it is done:
as §1

Starred links: 1 amine or outer side, 2 acyl side, 3 side chain; linkers in the order of their positions; H or OH if unused. Positions of bridges follow the written chain, without caps; N, C: chain ends. Non-standard residues stand in square brackets, D forms with d. Primed or numbered codes have the meaning given here. PyrS(3) = (S)-1-((allyloxy)carbonyl)-3-aminopyrrolidine-3-carboxylic acid, stapling residue, C=CCOC(=O)N1CC[C@@](N[*:1])(C(=O)[*:2])C1; PyrS″ = (S)-1-((allyloxy)carbonyl)-3-aminopyrrolidine-3-carboxylic acid (stapling residue), C=CCOC(=O)N1CC[C@@](N[*:1])(C(=O)[*:2])C1; PyrS = (S)-1-((allyloxy)carbonyl)-3-aminopyrrolidine-3-carboxylic acid, C=CCOC(=O)N1CC[C@@](N[*:1])(C(=O)[*:2])C1; Phe(3-CONH2) = NC(=O)c1cccc(C[C@H](N)C(=O)O)c1; Phe(4-CONH2) = NC(=O)c1ccc(C[C@H](N)C(=O)O)cc1; Phe(4-COOH) = N[C@@H](Cc1ccc(C(=O)O)cc1)C(=O)O; Phe(2-CONH2) = NC(=O)c1ccccc1C[C@H](N)C(=O)O; Phe(3-OMe) = COc1cccc(C[C@H](N)C(=O)O)c1; 1Nal = N[C@@H](Cc1cccc2ccccc12)C(=O)O; 2Nal = N[C@@H](Cc1ccc2ccccc2c1)C(=O)O; Ala(cPent) = N[C@@H](CC1CCCC1)C(=O)O; hPhe = N[C@@H](CCc1ccccc1)C(=O)O; R8 = C=CCCCCCC[C@@](C)(N)C(=O)O Bounds are passed on as bounds.

For orientation: EC50 means the concentration at which the effect is half-maximal. A low value points to greater potency.

B1: I-94 (peptide)
peptide: Ac-FDA[R8]DDAAFV[PyrS][Ala(cPent)]WQ-NH2
modifications: staple 4-11
notes: Stapled peptide composition; same description as I-93, separate later-eluting HPLC peak (staple isomer)
B1 returned an EC50 in assay [1] of 7.01 µM.

B2: I-108 (peptide)
peptide: Ac-FDA[R8]DDAA[Phe(3-CONH2)]V[PyrS″]FWQ-NH2
modifications: staple 4-11; not fully specified; printed as Ac-Phe-Asp-Ala-R8-Asp-Asp-Ala-Ala-3CBMF-Val-PyrS-Phe-Trp-Gln-NH2
notes: Stapled peptide composition
In assay [1], B2 yielded an EC50 of at least 10 µM.

B3: I-104 (peptide)
peptide: Ac-FDA[R8]DDAA[Phe(3-OMe)]V[PyrS″]FWQ-NH2
modifications: staple 4-11; not fully specified; printed as Ac-Phe-Asp-Ala-R8-Asp-Asp-Ala-Ala-3OMeF-Val-PyrS-Phe-Trp-Gln-NH2
notes: Stapled peptide composition
Regarding B3, in assay [1], the EC50 worked out at 6.17 µM.

B4: I-105 (peptide)
peptide: Ac-FDA[R8]DDAAFV[PyrS″][Phe(2-CONH2)]WQ-NH2
modifications: staple 4-11; not fully specified; printed as Ac-Phe-Asp-Ala-R8-Asp-Asp-Ala-Ala-Phe-Val-PyrS-2CBMF-Trp-Gln-NH2
notes: Stapled peptide composition
In the case of B4, the EC50 in assay [1] was at least 10 µM.

B5: I-91 (peptide)
peptide: Ac-FDA[R8]DDAA[Phe(4-CONH2)]V[PyrS″]FWQ-NH2
modifications: staple 4-11
notes: Stapled peptide composition; same description as I-92, separate earlier-eluting HPLC peak (staple isomer)
The molecule B5 showed an EC50 in assay [1] of 4.72 µM.

B6: I-100 (peptide)
peptide: Ac-FDA[R8]DFAAFV[PyrS″]FWQ-NH2
modifications: staple 4-11
notes: Stapled peptide composition; same description as I-99, separate later-eluting HPLC peak (staple isomer)
Turning to B6, it took 9.23 µM to reach a half-maximal effect in assay [1] (EC50).

B7: I-121 (peptide)
peptide: Ac-FDA[R8]DDAAFV[PyrS(3)]DWQ-NH2
modifications: staple 4-11
notes: Stapled peptide composition
Take B7: a half-maximal effect in assay [1] (EC50) was put at 4.46 µM.

B8: I-122 (peptide)
peptide: Ac-FDA[R8]DDAAFV[PyrS″]DWQ-NH2
modifications: staple 4-11; not fully specified; printed as Ac-Phe-Asp-Ala-R8-Asp-Asp-Ala-Ala-Phe-Val-PyrS-Asp-Trp-Gln-NH2
notes: Stapled peptide composition
Consider B8, for which, in assay [1], the EC50 was at least 10 µM.

B9: I-99 (peptide)
peptide: Ac-FDA[R8]DFAAFV[PyrS]FWQ-NH2
modifications: staple 4-11; not fully specified; printed as Ac-Phe-Asp-Ala-R8-Asp-Phe-Ala-Ala-Phe-Val-PyrS-Phe-Trp-Gln-NH2
notes: Stapled peptide composition; same description as I-100, separate earlier-eluting HPLC peak (staple isomer)
As to B9, the EC50 in assay [1] is at least 10 µM.

B10: I-93 (peptide)
peptide: Ac-FDA[R8]DDAAFV[PyrS″][Ala(cPent)]WQ-NH2
modifications: staple 4-11
notes: Stapled peptide composition; same description as I-94, separate earlier-eluting HPLC peak (staple isomer)
Molecule B10 came in with an EC50 in assay [1] of at least 10 µM.

B11: I-113 (peptide)
peptide: Ac-FDA[R8]DDAA[2Nal]V[PyrS″]FWQ-NH2
modifications: staple 4-11
notes: Stapled peptide composition
In turn, B11 gave an EC50 in assay [1] of 6.2 µM.

B12: I-102 (peptide)
peptide: Ac-FDA[R8]DDAAFV[PyrS″][Phe(3-OMe)]WQ-NH2
modifications: staple 4-11; not fully specified; printed as Ac-Phe-Asp-Ala-R8-Asp-Asp-Ala-Ala-Phe-Val-PyrS-3OMeF-Trp-Gln-NH2
notes: Stapled peptide composition
For B12, in assay [1], the EC50 is at least 10 µM.

B13: I-92 (peptide)
peptide: Ac-FDA[R8]DDAA[Phe(4-CONH2)]V[PyrS″]FWQ-NH2
modifications: staple 4-11
notes: Stapled peptide composition; same description as I-91, separate later-eluting HPLC peak (staple isomer)
With B13, in assay [1], the EC50 turned out to be 9.15 µM.

B14: I-98 (peptide)
peptide: Ac-FDA[R8]D[hPhe]AAFV[PyrS″]FWQ-NH2
modifications: staple 4-11; not fully specified; printed as Ac-Phe-Asp-Ala-R8-Asp-hPhe-Ala-Ala-Phe-Val-PyrS-Phe-Trp-Gln-NH2
notes: Stapled peptide composition; same description as I-97, separate later-eluting HPLC peak (staple isomer)
B14 showed an EC50 in assay [1] of at least 10 µM.

B15: I-101 (peptide)
peptide: Ac-FDA[R8]DDAAFV[PyrS″][Phe(3-OMe)]WQ-NH2
modifications: staple 4-11; not fully specified; printed as Ac-Phe-Asp-Ala-R8-Asp-Asp-Ala-Ala-Phe-Val-PyrS-3OMeF-Trp-Gln-NH2
notes: Stapled peptide composition
Regarding B15, the EC50 in assay [1] is at least 10 µM.

B16: I-111 (peptide)
peptide: Ac-FDA[R8]DDAAFV[PyrS″][Phe(4-COOH)]WQ-NH2
modifications: staple 4-11
notes: Stapled peptide composition; same description as I-110, separate later-eluting HPLC peak (staple isomer)
Consider B16, for which the EC50 in assay [1] turned out to be 7.64 µM.

B17: I-112 (peptide)
peptide: Ac-FDA[R8]DDAA[2Nal]V[PyrS″]FWQ-NH2
modifications: staple 4-11
notes: Stapled peptide composition
For the molecule B17, in assay [1], the concentration giving a half-maximal response (EC50) was at least 10 µM.

B18: I-109 (peptide)
peptide: Ac-FDA[R8]DDAA[Phe(3-CONH2)]V[PyrS″]FWQ-NH2
modifications: staple 4-11; not fully specified; printed as Ac-Phe-Asp-Ala-R8-Asp-Asp-Ala-Ala-3CBMF-Val-PyrS-Phe-Trp-Gln-NH2
notes: Stapled peptide composition
Consider B18, for which the EC50 in assay [1] worked out at 8.82 µM.

B19: I-96 (peptide)
peptide: Ac-FDA[R8]DDAA[Ala(cPent)]V[PyrS]FWQ-NH2
modifications: staple 4-11
notes: Stapled peptide composition; same description as I-95, separate later-eluting HPLC peak (staple isomer)
Molecule B19 returned an EC50 in assay [1] of at least 10 µM.

B20: I-97 (peptide)
peptide: Ac-FDA[R8]D[hPhe]AAFV[PyrS″]FWQ-NH2
modifications: staple 4-11; not fully specified; printed as Ac-Phe-Asp-Ala-R8-Asp-hPhe-Ala-Ala-Phe-Val-PyrS-Phe-Trp-Gln-NH2
notes: Stapled peptide composition; same description as I-98, separate earlier-eluting HPLC peak (staple isomer)
As for B20, the response in assay [1] was half-maximal at 7.01 µM (EC50).

B21: I-90 (peptide)
peptide: Ac-FDA[R8]DDAAFV[PyrS″][Phe(4-CONH2)]WQ-NH2
modifications: staple 4-11
notes: Stapled peptide; also called Ac-Phe-Asp-Ala-R8-Asp-Asp-Ala-Ala-Phe-Val-PyrS-4CBMF-Trp-Gln-NH2
B21: the EC50 in assay [2] was at least 10 µM.

B22: I-107 (peptide)
peptide: Ac-FDA[R8]DDAAFV[PyrS″][Phe(3-CONH2)]WQ-NH2
modifications: staple 4-11
notes: Stapled peptide composition
B22 yielded an EC50 in assay [1] of at least 10 µM.

B23: I-106 (peptide)
peptide: Ac-FDA[R8]DDAAFV[PyrS][Phe(2-CONH2)]WQ-NH2
modifications: staple 4-11; not fully specified; printed as Ac-Phe-Asp-Ala-R8-Asp-Asp-Ala-Ala-Phe-Val-PyrS-2CBMF-Trp-Gln-NH2
notes: Stapled peptide composition
Consider B23, for which the EC50 in assay [1] was at least 10 µM.

B24: I-110 (peptide)
peptide: Ac-FDA[R8]DDAAFV[PyrS″][Phe(4-COOH)]WQ-NH2
modifications: staple 4-11; not fully specified; printed as Ac-Phe-Asp-Ala-R8-Asp-Asp-Ala-Ala-Phe-Val-PyrS-4COOHF-Trp-Gln-NH2
notes: Stapled peptide composition
The molecule B24 registered an EC50 in assay [1] of 8.5 µM.

B25: I-103 (peptide)
peptide: Ac-FDA[R8]DDAA[Phe(3-OMe)]V[PyrS″]FWQ-NH2
modifications: staple 4-11; not fully specified; printed as Ac-Phe-Asp-Ala-R8-Asp-Asp-Ala-Ala-3OMeF-Val-PyrS-Phe-Trp-Gln-NH2
notes: Stapled peptide composition
As to B25, the response in assay [1] was half-maximal at 4.95 µM (EC50).

B26: I-114 (peptide)
peptide: Ac-FDA[R8]D[1Nal]AAFV[PyrS″]FWQ-NH2
modifications: staple 4-11
notes: Stapled peptide composition
Take B26: the EC50 in assay [1] stood at 4.74 µM.

B27: I-95 (peptide)
peptide: Ac-FDA[R8]DDAA[Ala(cPent)]V[PyrS″]FWQ-NH2
modifications: staple 4-11
notes: Stapled peptide composition; same description as I-96, separate earlier-eluting HPLC peak (staple isomer)
With B27, in assay [1], the response was half-maximal at 8.66 µM (EC50).
